Two molecules from patent US20130323187A1 can be followed below.

* marks the point of attachment. Decanoyl = CCCCCCCCCC(=O)*; CH2Cl = ClC*

In series [1] the test system is T1, D-6R.
T1 sequence: XXXXXXXXXX

Series [2] concerns T2, D-9Rac/am.
T2 sequence: XXXXXXXXXXXXX

The test system of series [3] is T3, Decanoyl-Arg-Val-Lys-Arg-CMK (FI-I, CALBIOCHEM).
T3 sequence: RVKR

Series [4] relates to L-Bel1.
The target of series [5] is Recombinant furin. In words: Ki for inhibition of furin, given as the comparison in the Boc-RVRR-MCA enzyme assay.
Sequence of Recombinant furin (P09958 108-715): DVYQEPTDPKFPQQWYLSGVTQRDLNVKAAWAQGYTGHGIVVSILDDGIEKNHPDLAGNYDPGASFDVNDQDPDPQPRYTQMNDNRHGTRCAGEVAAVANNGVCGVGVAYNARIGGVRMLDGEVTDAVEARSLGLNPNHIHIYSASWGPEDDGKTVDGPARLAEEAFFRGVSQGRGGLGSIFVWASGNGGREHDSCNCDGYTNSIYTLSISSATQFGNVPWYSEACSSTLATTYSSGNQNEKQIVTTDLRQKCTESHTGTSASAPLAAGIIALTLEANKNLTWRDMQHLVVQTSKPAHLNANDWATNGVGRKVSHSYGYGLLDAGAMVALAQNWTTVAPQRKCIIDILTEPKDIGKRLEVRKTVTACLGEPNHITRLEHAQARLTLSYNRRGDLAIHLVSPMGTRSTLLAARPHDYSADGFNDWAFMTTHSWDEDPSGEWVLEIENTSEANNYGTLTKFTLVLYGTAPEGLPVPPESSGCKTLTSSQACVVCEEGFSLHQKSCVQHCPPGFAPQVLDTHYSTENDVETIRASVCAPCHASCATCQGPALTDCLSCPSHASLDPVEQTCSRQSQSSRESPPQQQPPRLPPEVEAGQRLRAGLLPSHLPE

As to Recombinant furin, the “in vitro furin activity (cleavage of Boc-RVRR-MCA)” value in series [1] is given as “inhibited to completion in vitro furin activity”; in series [2], “inhibited to completion in vitro furin activity”; in series [3] it was “furin activity is inhibited by the specific furin inhibitor Decanoyl (d)-RVKR-chloromethylketone (CMK)”; in series [4] it was “inhibited to completion in vitro furin activity”.

B1: Decanoyl-Arg-Val-Lys-Arg-CMK (FI-I, CALBIOCHEM) (peptide)
peptide: Decanoyl-RVKR-CH2Cl
On to B1, for which the Ki – broadly, a measure of affinity in units of concentration, obtained from inhibition or displacement – in series [5] was 1 nM.
